Source: article PMC7982547 (The Journal of Biological Chemistry, 2004)

B1: HR1 (heptad repeat 1) region of the MHV A59 spike protein, residues 968-1027 (domain or fragment)
chain: ENQKMIASAFNNALGAIQDGFDATNSALGKIQSVVNANAEALNNLLNQLSNRFGAISASL
B2: nMHV 2-Helix (new construct of the MHV fusion core: shortened HR1, 22-residue linker, HR2) (domain or fragment)
chain: ENQKMIASAFNNALGAIQDGFDATNSALGKIQSVVNANAEALNNLLNQLSLVPRGSGGSGGSGGLEVLFQGPDLSLDFEKLNVTLLDLTYEMNRIQDAIKKLNESYINLKE

Experiments:
crystal structure [1] = target: the molecule itself; experiment: crystal structure
crystal structure [2] = target: the molecule itself; experiment: crystal structure; remark: listed apart in the source

Protein | stoichiometry N (crystal structure [1]) | binding result (crystal structure [2])
B1 | 3 | –
ENQKMIASAFNNALGAIQDGFDATNSALGKIQSVVNANAEALNNLLNQLS (domain or fragment) [shortened HR1 region of the MHV A59 spike protein, residues 968-1017] | – | binds
B2 | – | binds
